Measurements from patent publication US20240270821A1, “GIP/GLP1/GCG TRI-RECEPTOR AGONISTS AND USES THEREOF” (priority 2023, published 2024).

T1: human GIP receptor (human) (UniProt P48546)
T1 sequence (looked up): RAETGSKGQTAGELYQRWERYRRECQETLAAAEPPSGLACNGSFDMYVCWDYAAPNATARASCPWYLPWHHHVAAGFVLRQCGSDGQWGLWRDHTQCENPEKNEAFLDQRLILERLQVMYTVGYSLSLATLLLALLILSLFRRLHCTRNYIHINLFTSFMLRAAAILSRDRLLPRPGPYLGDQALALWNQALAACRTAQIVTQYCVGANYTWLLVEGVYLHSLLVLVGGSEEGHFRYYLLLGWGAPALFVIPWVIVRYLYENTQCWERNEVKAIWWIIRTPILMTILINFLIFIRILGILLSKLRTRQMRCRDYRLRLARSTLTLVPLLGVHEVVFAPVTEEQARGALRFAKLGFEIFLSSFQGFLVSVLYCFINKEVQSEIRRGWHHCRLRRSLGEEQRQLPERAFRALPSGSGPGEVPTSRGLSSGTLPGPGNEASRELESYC


How the values were obtained:
Assay in all cases: cell-based or functional assay
[1] = molecular target: human glucagon receptor (human) (UniProt P47871)
hGLP-1R = hGLP-1R (Homo sapiens, UniProt P43220)
[2] = molecular target: T1, human GIP receptor (human)
[3] = molecular target: human GLP-1R (SNAP-GLP-1R expressed in HEK293 cells) (human) (UniProt P43220)
Chain of human GLP-1R (SNAP-GLP-1R expressed in HEK293 cells) (human) (P43220 24-463): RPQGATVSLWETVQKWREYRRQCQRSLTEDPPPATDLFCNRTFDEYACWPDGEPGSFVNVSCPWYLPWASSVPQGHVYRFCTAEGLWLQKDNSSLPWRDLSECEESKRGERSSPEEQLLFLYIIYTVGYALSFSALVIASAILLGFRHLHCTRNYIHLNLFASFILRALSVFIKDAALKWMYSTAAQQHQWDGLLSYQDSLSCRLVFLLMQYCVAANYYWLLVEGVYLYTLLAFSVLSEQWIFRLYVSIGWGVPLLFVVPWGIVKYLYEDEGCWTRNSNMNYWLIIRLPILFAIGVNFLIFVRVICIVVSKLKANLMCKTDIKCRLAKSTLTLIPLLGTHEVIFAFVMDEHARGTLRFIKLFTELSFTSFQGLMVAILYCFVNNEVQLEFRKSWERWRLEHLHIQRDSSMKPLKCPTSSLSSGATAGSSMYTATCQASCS

Chain of hGLP-1R (P43220 24-463): as above
Chain of human glucagon receptor (human) (P47871 26-477): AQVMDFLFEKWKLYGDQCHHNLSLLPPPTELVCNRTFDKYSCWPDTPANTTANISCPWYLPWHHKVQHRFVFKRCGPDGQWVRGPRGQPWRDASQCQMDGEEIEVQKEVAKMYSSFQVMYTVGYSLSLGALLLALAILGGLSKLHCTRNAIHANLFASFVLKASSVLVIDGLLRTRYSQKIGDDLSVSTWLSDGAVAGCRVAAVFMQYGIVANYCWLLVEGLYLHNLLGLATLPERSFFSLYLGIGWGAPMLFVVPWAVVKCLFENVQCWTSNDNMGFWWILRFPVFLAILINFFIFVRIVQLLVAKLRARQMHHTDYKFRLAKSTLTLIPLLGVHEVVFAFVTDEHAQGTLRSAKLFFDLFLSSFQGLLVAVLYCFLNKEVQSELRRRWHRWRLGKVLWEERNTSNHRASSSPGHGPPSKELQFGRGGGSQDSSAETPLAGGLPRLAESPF

Row | Binder | Relative cAMP EC50, nM (0.1% casein) [1] [nM] | cAMP Rel EC50, nM (1% HSA) [1] [nM] | Relative cAMP EC50, nM (0.1% casein) (hGLP-1R) [nM] | cAMP Rel EC50, nM (1% HSA) (hGLP-1R) [nM] | Relative cAMP EC50, nM (0.1% casein) [2] [nM] | cAMP Rel EC50, nM (1% HSA) [2] [nM] | GLP1R Internalization EC50 [3] [nM] | Internalization % TOP [3] [%] | Relative cAMP EC50 [1] [nM] | Relative cAMP EC50 (hGLP-1R) [nM] | Relative cAMP EC50 [2] [nM]
1 | YXQGTFTSDFSXXLDKKAQXAFIEYLLEXGXSSGAPPPSGS (synthetic construct; SITE 2: note = 2-Aminoisobutyric Acid; SITE 12: note = L-ornithine; SITE 13: note = alpha-methyl-leucine; SITE 17: note = Lysine is chemically modified through conjugation of the epsilon-amino group of the Lysine side chain with (2-[2-(2-Amino-ethoxy)-ethoxy]-acetyl)2-(gamma-Glu)) [Example 183] | 3.83 | 504 | 5.03 | 295 | 0.0759 | 13.7 | 100 | 45.4 |  |  | 
2 | YXQGTFTSDFSKXLDKKAQXAFIEYLIEXGESSGAPPPSGE (synthetic construct; SITE 2: note = 2-Aminoisobutyric Acid; SITE 13: note = alpha-methyl-leucine; SITE 17: note = Lysine is chemically modified through conjugation of the epsilon-amino group of the Lysine side chain with (2-[2-(2-Amino-ethoxy)-ethoxy]-acetyl)-(gamma-Glu)-CO-(CH2) 16-CO2H; SITE 20: n) [Example 217] |  | 1570 |  | 130 |  | 15 | 27.6 | 58.2 | 5.11 | 0.667 | 0.0897
3 | YXQGTFTSDFSXXLDKKAQXAFIEYLLEAGPSSXAPPPSGT (synthetic construct; SITE 2: note = 2-Aminoisobutyric Acid; SITE 12: note = L-ornithine; SITE 13: note = alpha-methyl-leucine; SITE 17: note = Lysine is chemically modified through conjugation of the epsilon-amino group of the Lysine side chain with (2-[2-(2-Amino-ethoxy)-ethoxy]-acetyl)-(gamma-Glu)) [Example 214] |  | 302 |  | 186 |  | 15.1 | 50.1 | 41.7 | 2.49 | 1.22 | 0.103
4 | YXQGTFTSDXSXXLDKKAQXAFIEYLIEXGESSGAPPPSGE (synthetic construct; SITE 2: note = 2-Aminoisobutyric Acid; SITE 10: note = 3-(4-Pyridyl)-L-alanine; SITE 12: note = L-ornithine; SITE 13: note = alpha-methyl-leucine; SITE 17: note = Lysine is chemically modified through conjugation of the epsilon-amino group of the Lysine side chain with (2-[2-(2-) [Example 222] |  | 440 |  | 753 |  | 52.5 | 34.6 | 52.4 | 2.33 | 3.64 | 0.228
5 | YXQGTFTSDXSRXLDKKAQXAFIEYLIEXGESSGAPPPSGE (synthetic construct; SITE 2: note = 2-Aminoisobutyric Acid; SITE 10: note = 3-(4-Pyridyl)-L-alanine; SITE 13: note = alpha-methyl-leucine; SITE 17: note = Lysine is chemically modified through conjugation of the epsilon-amino group of the Lysine side chain with (2-[2-(2-Amino-ethoxy)-ethoxy]-acetyl)) [Example 225] |  | 561 |  | 438 |  | 40.2 | 26 | 56.7 | 2.36 | 2.44 | 0.213
6 | YXQGTFTSDXSRXLDKKAQXAFIEYLIEXGESSGAPPPSGS (synthetic construct; SITE 2: note = 2-Aminoisobutyric Acid; SITE 10: note = 3-(4-Pyridyl)-L-alanine; SITE 13: note = alpha-methyl-leucine; SITE 17: note = Lysine is chemically modified through conjugation of the epsilon-amino group of the Lysine side chain with (2-[2-(2-Amino-ethoxy)-ethoxy]-acetyl)) [Example 187] | 14.8 | 2970 | 1.11 | 178 | 0.111 | 15.6 | 17.2 | 57 |  |  | 
7 | YXQGTFTSDFSXXLDKKAQXAFIEYLLEXGPSSGAPPPSGT (synthetic construct; SITE 2: note = 2-Aminoisobutyric Acid; SITE 12: note = L-ornithine; SITE 13: note = alpha-methyl-leucine; SITE 17: note = Lysine is chemically modified through conjugation of the epsilon-amino group of the Lysine side chain with (2-[2-(2-Amino-ethoxy)-ethoxy]-acetyl)-(gamma-Glu)) [Example 200] |  | 360 |  | 395 |  | 13.7 | 86.1 | 39.2 | 2.83 | 3.19 | 0.0739
8 | YXQGTFTSDFSXXLDKKAQXAFIEYLLEAGPSSGAPPPSGS (C-terminal amide; synthetic construct; SITE 2: note = 2-Aminoisobutyric Acid; SITE 12: note = L-ornithine; SITE 13: note = alpha-methyl-leucine; SITE 17: note = Lysine is chemically modified through conjugation of the epsilon-amino group of the Lysine side chain with (2-[2-(2-Amino-ethoxy)-ethoxy]-acetyl)-(gamma-Glu)) [Example 212] |  |  |  |  |  |  | 79.7 | 43 | 3.74 | 1.35 | 0.13
9 | YXQGTFTSDXSQXLDKKAQXAFIEYLIEXGESSGAPPPSGE (synthetic construct; SITE 2: note = 2-Aminoisobutyric Acid; SITE 10: note = 3-(4-Pyridyl)-L-alanine; SITE 13: note = alpha-methyl-leucine; SITE 17: note = Lysine is chemically modified through conjugation of the epsilon-amino group of the Lysine side chain with (2-[2-(2-Amino-ethoxy)-ethoxy]-acetyl)) [Example 227] |  | 937 |  | 418 |  | 39.7 | 114 | 59.4 | 4.22 | 2.34 | 0.17
10 | YXQGTFTSDFSXXLDKKAQXAFIEYLLEAGPSSGAPPPSGX (synthetic construct; SITE 2: note = 2-Aminoisobutyric Acid; SITE 12: note = L-ornithine; SITE 13: note = alpha-methyl-leucine; SITE 17: note = Lysine is chemically modified through conjugation of the epsilon-amino group of the Lysine side chain with (2-[2-(2-Amino-ethoxy)-ethoxy]-acetyl)-(gamma-Glu)) [Example 211] |  | 370 |  | 234 |  | 20.6 | 57.4 | 26.9 | 2.05 | 1.23 | 0.116
11 | YXQGTFTSDFSXXLDKKAQXAFIEYLLEXGPSSGAPPPSGS (synthetic construct; SITE 2: note = 2-Aminoisobutyric Acid; SITE 12: note = L-ornithine; SITE 13: note = alpha-methyl-leucine; SITE 17: note = Lysine is chemically modified through conjugation of the epsilon-amino group of the Lysine side chain with (2-[2-(2-Amino-ethoxy)-ethoxy]-acetyl)-(gamma-Glu)) [Example 192] | 4.18 | 560 | 9.77 | 719 | 0.142 | 9.86 | 115 | 48.7 |  |  | 
